Experiment: soluble on expression in E. coli; label from the status in PepcDB or PDB records
For “GPGSMMRCGNGSGPAAPSAASPRSHEGCLPHWMECSSASSSFVEDRVRCLVHPVGVTSLLPAPLQRILANVLRILQQERAQLKGQRPCRRHSRSLGTGVDAEVTECIVDAAQAPSLAAAADIFSAFVAAHPMDGLALLSSPVALVGAALAEVVTLGQVESCVIPMPELLSFLDAAISVGHPGAMHSVAICLREGTAGLQRDVTSSETWLRCAASSGYLPAMHELGETYERGAPASSKLPAGAAEDAADWGEAMQWYRRAAEAGYPPSQLNLGKLLLAASEHAQSAGSAAAPQVAHLFTEAKRWLHACAATGVEEAVRLVKRIEEQGAR”, the “soluble on expression in E. coli” value was “soluble”.
For “GPGSMNERLEDIALTLVGAGKGILAADESTATIGKRFESIGVECTEDNRRAYREMLFTAKEAMESAISGVILFDETLRQKASTGQMLTDLIRDAGAVPGIKVDTGAKPLAAFPQETITEGLDGLRERLKDYYTLGARFAKWRAVIAIDAQTLPTRGAISQNAQALARYAALCQEAGLVPIVEPEVLMDGPSRQHSITRCFEVTKVVLHTVFKELFEARVLFEGMILKPNMVIDGKDARIASVEEVAEKTVHVLKQTVPAAVPGIAFLSGGQTDEEATAHLSAMNALGALPWKLTFSYGRALQAAALKAWAGKNENIVVAQKAFCHRARMNHLAALGQWTKDQEKSCA”, the “soluble on expression in E. coli” value was “soluble”.
With “GPGSMNPATKDVASAEEESPVVCTAKQYIFDLHSYAWKESDCLIRIPRPHKGMGHGGMRVCYAVEDVDEEGAGTPMVAKMFRRNISNVVEKDYFNEGAAQCMCEEFANNFNRIHLTNIRKPNISFLQCYVVRIPRDSIPAASQRKRTGFFSYKTQDTGEVMFVMEPMLSGKFTKYNSNYGETYREDKKAALTSSEARRRTEIFEAAETFSHFTLVESGGSMLVCDLQGVNDFFTDPQIHTEDGKGLGMGNMGQEGIDKWIEKHECNDICRALGLQPLLGAVPSSTACAREENMYLGLRAQLQSQNPVRLRDLVPLTKPLEEMTEAERIEYALKVSRLTD” the “soluble on expression in E. coli” value was “soluble”.
For “GPGSMNPSKVVQGTPNSVEWDPRNPPDTPFFTETTAVERSRIPTEYIRRMEEATRLYAMHREGRHALHTACQIASWTVATQCCWLCVGVWLTVRGYRHANPAHSFVSGMTSNKVFCRVFTPIPVLGLTMMGVTAAQLPRDVKVLITAREGRMEEENCMKSAFDQCMAALAEGRLAMGKEGILTA”, the “soluble on expression in E. coli” value was “not soluble”.
In the case of “GPGSMNRLFGRKKDTQKPTLEDASVKIGARCDAVDARVSKIDAELAKLKECIQRTTGATQQRHKQRAIQLLQQKRLYQNQQDVLMQQQFNIDQLQFTTESVKDAKLQVDAMKDATKTLKREFKKMSVADVEKLQDELLNLYEDAQYVQEAMGRSYDVPDSIDEDEMLGELEALAMQSGNEADSSYLSDALAMPSGRLPDLMSNTQQQQETETPDPYKLETQLGL”, the “soluble on expression in E. coli” value is reported as “not soluble”.
For “GPGSMNYEGHLKGHRGWVTSLACPQQAGSYIKVVSTSRDGTAISWKANPDRHSVDSDYGLPNHRLEGHTGFVSCVSLAHATDYALTASWDRSIRMWDLRNGQCQRKFLKHTKDVLAVAFSPDDRLIVSAGRDNVIRVWNVAGECMHEFLRDGHEDWVSSICFSPSLEHPIVVSGSWDNTIKVWNVNGGKCERTLKGHSNYVSTVTVSPDGSLCASGGKDGAALLWDLSTGEQLFKINVESPINQIAFSPNRFWMCVATERSLSVYDLESKAVIAELTPDGAKPSECISIAWSADGNTLYSGHKDNLIRVWSISDAE”, the “soluble on expression in E. coli” value was “soluble”.
For “GPGSMPNPYTGNYEAARFVEYYASAQMLRDSVHRLHTVSIQRHMDALRRAESAHQKHTCPAAPIRSRQQIEEHANRMVYQEMLRRQKNMTKLAWDVYKPVPPKRLSSEELRSLVKRMYEQQMQNMTERKKEARQRQVVLSDEVLAETRRGRRMLRQRDIHRSLESGWRTPSSRAKYNDGKLLLVSGGNVKSTSKERPPDLGYLARLAKPLRPTERVNKC”, the “soluble on expression in E. coli” value was “not soluble”.
In the case of “GPGSMPSLNFFLADESRLESSRDDSTAEVAHFTPSQHALRRILISTAMANKSLEYVQGMNEYVAHLLYAFAKGKASNLTASVEADTFFCFQTLLSYLGDDFCRSFDFDAACGLTSTMRLFDNVLRFFDPSLFQHLEYLGINAEHYALRWIMLLFTQEFNIADGLRVWDFLLSFGDEIRNAAFFVAAAMCHHLRSSILSGEAMSDVLPLLQEYPAGDVNLFLRIALKWIVKFDFDLLHELKPLSPEGVQALRCSRGLEGGMNFVQVMQSWVPSIF”, the “soluble on expression in E. coli” value is reported as “not soluble”.
For “GPGSMPTAKVTEKEAACVTALKGEYPASKADPADAGFLSDSTYLRFARAHDGNVKKASELLGATLRWRKQTKPYAITMEEVQNAMKQTTMYCGGRCNIGCPVIAMVPGMQNDCTVEERTKQLVYIMEETHRKGYERITWIIDFGAMGSHRDERSKEARKETMKILQDYYPERMARILLYRTPWYIRMLLGAAKMFMDARTAAKVYNAGRTIEALEKFVDRDQVPPVCGGTMKGSALSHLEELPSLNSE”, the “soluble on expression in E. coli” value was “not soluble”.
